Measured values taken from publication PMC2175090.

Biological target: polymerized MTs purified from the bovine brain (bovine) (UniProt Q6B856)
Assay: co-sedimentation

GST-M1 fusion protein encompassing ACF7's M1 domain (domain or fragment)
Kd: 6 µM
